The source of these data is publication PMC12689856, “A highly active Burkholderia polyketoacyl-CoA thiolase for production of triacetic acid lactone” (Nature Communications, 2025).

The target in series [1] is T1, BktBbr (Burkholderia sp. RF2-non_BP3, UniProt Z9IDK7UI24, G255A).
T1 construct: synthetic codon-optimised gene in pET-28a(+)-TEV (NdeI/XhoI), E. coli BL21(DE3), Ni-NTA; tetramer
Kind of series: coupled alpha-KGDH assay, TAL formation. Format: biochemical. The settings on record: acetoacetyl-CoA varied to 200 uM, acetyl-CoA fixed 200 uM; 22 °C.

Series [2] deals with T2, BktBbr (Burkholderia sp. RF2-non_BP3, UniProt Z9IDK7UI24, S254A).
T2 construct: synthetic codon-optimised gene in pET-28a(+)-TEV (NdeI/XhoI), E. coli BL21(DE3), Ni-NTA; tetramer
In words: coupled alpha-KGDH assay, TAL formation. In kind it is biochemical. The settings on record: acetoacetyl-CoA varied to 200 uM, acetyl-CoA fixed 200 uM; 22 °C.

The target of series [3] is T3, BktBbr (Burkholderia sp. RF2-non_BP3, UniProt Z9IDK7UI24).
T3 construct: synthetic codon-optimised gene in pET-28a(+)-TEV (NdeI/XhoI), E. coli BL21(DE3), Ni-NTA; tetramer
Kind of series: X-ray crystal structure, soaked, […] Å. In kind it is binding. The conditions noted are these: 20 mM ligand soak 3 h; CoA tunnel, water-mediated contacts; paper calls CoA esters covalent.

Series [4] has as its target T3, BktBbr. In words: X-ray crystal structure, soaked, […] Å. The settings on record: 20 mM ligand soak 3 h; active site and CoA tunnel; paper calls CoA esters covalent. In kind it is binding.
Another series concerns T4, BktBbb.
T4 construct: gene bktB; synthetic codon-optimised gene in pET-28a(+)-TEV, E. coli BL21(DE3), Ni-NTA
In words: coupled alpha-KGDH assay, NADH fluorescence. In kind it is biochemical, Burkholderia sp. Bp8998. The settings on record: acetyl-CoA as only substrate, 12.5-400 uM; 50 mM sodium phosphate, 3 mM EDTA, 1 mM DTT; 22 °C; 3 uM enzyme. An excerpt:
coupled alpha-KGDH assay, NADH fluorescence on BktBbb | Michaelis-Menten plot of all BktBs and 2-PS with only acetyl-CoA or malonyl-CoA

Series [5] addresses T3, BktBbr. Kind of series: X-ray crystal structure, soaked, […] Å. Format: binding. The conditions noted are these: 20 mM ligand soak 3 h; active site and CoA tunnel; paper calls CoA esters covalent. This is another data set of the same source.
Series [6] concerns CC(=O)SCCNC(=O)CCNC(=O)[C@H](O)C(C)(C)COP(=O)(O)OP(=O)(O)OC[C@H]1O[C@@H](n2cnc3c(N)ncnc32)[C@H](O)[C@@H]1OP(=O)(O)O. Kind of series: purified protein. The settings on record: acetyl-CoA as only substrate, 12.5-400 uM, 50 mM sodium phosphate, 3 mM EDTA, 1 mM DTT, 22 °C, 3 uM enzyme.
Substrate in series [7]: CC(=O)SCCNC(=O)CCNC(=O)[C@H](O)C(C)(C)COP(=O)(O)OP(=O)(O)OC[C@H]1O[C@@H](n2cnc3c(N)ncnc32)[C@H](O)[C@@H]1OP(=O)(O)O
Kind of series: coupled alpha-KGDH assay, NADH fluorescence. In kind it is biochemical, Cupriavidus necator. The settings on record: acetyl-CoA as only substrate, 12.5-400 uM, 50 mM sodium phosphate, 3 mM EDTA, 1 mM DTT, 22 °C, 3 uM enzyme. An excerpt:
coupled alpha-KGDH assay, NADH fluorescence on BktBcn | BktBbr and BktBba have slightly higher kcat/KM than BktBcn and BktBcl

Substrate in series [8]: CC(C)(COP(=O)(O)OP(=O)(O)OC[C@H]1O[C@@H](n2cnc3c(N)ncnc32)[C@H](O)[C@@H]1OP(=O)(O)O)[C@@H](O)C(=O)NCCC(=O)NCCSC(=O)CC(=O)O
Kind of series: coupled alpha-KGDH assay, NADH fluorescence. In kind it is biochemical, Gerbera hybrid cultivar. The settings on record: malonyl-CoA as only substrate, 12.5-400 uM, 22 °C. An excerpt:
coupled alpha-KGDH assay, NADH fluorescence on 2-PS | Michaelis-Menten plot of all BktBs and 2-PS with only acetyl-CoA or malonyl-CoA

In the case of `CC(=O)CC(=O)SCCNC(=O)CCNC(=O)[C@H](O)C(C)(C)COP(=O)(O)OP(=O)(O)OC[C@H]1O[C@@H](n2cnc3c(N)ncnc32)[C@H](O)[C@@H]1OP(=O)(O)O` [acetoacetyl-CoA], the “coupled alpha-KGDH assay, TAL formation” value was “while G255A performed comparably to the wild-type” on BktBbr [1]; “purified mutants of S254A and G251A exhibited overall better enzyme activity for TAL formation” on BktBbr [2]. For the same molecule, the “X-ray crystal structure, soaked, 2.4 Å” value at BktBbr [3] is on record as “Interaction of acetoacetyl-CoA with BktBbr through water molecules (PDB ID: 9BWP)”.

By Km is commonly meant the concentration of substrate that gives half-maximal velocity. For the molecule `CC(=O)SCCNC(=O)CCNC(=O)[C@H](O)C(C)(C)COP(=O)(O)OP(=O)(O)OC[C@H]1O[C@@H](n2cnc3c(N)ncnc32)[C@H](O)[C@@H]1OP(=O)(O)O` [acetyl-CoA], at BktBbr [4], the “X-ray crystal structure, soaked, 2.2 Å” value is “bound with acetyl-CoA, acetoacetyl-CoA, and butyryl-CoA (PDB IDs: 9BWO, 9BWP, 9BWL)”. Besides, the Km in the series on BktBbb came out at 43.3 ± 16.6 µM.

For `CCCC(=O)SCCNC(=O)CCNC(=O)[C@H](O)C(C)(C)COP(=O)(O)OP(=O)(O)OC[C@H]1O[C@@H](n2cnc3c(N)ncnc32)[C@H](O)[C@@H]1OP(=O)(O)O` [butyryl-CoA], the “X-ray crystal structure, soaked, 2.1 Å” value at BktBbr [5] was “Binding of butyryl-CoA in the active site (PDB ID: 9BWL)”.

One may read the kcat as the maximal rate divided by the concentration of active sites. In general, kcat/Km refers to the turnover number divided by the Michaelis constant. Turning to BktBbr (Burkholderia sp. RF2-non_BP3), in series [6], the Km was 23.99 ± 13.47 µM, the catalytic constant (kcat) worked out at 1.203 ± 0.115 s⁻¹ and the kcat/Km amounted to 50200 ± 21000 M⁻¹ s⁻¹.

B1: BktBcn (Cupriavidus necator H16) (protein)
chain: MTREVVVVSGVRTAIGTFGGSLKDVAPAELGALVVREALARAQVSGDDVGHVVFGNVIQTEPRDMYLGRVAAVNGGVTINAPALTVNRLCGSGLQAIVSAAQTILLGDTDVAIGGGAESMSRAPYLAPAARWGARMGDAGLVDMMLGALHDPFHRIHMGVTAENVAKEYDISRAQQDEAALESHRRASAAIKAGYFKDQIVPVVSKGRKGDVTFDTDEHVRHDATIDDMTKLRPVFVKENGTVTAGNASGLNDAAAAVVMMERAEAERRGLKPLARLVSYGHAGVDPKAMGIGPVPATKIALERAGLQVSDLDVIEANEAFAAQACAVTKALGLDPAKVNPNGSGISLGHPIGATGALITVKALHELNRVQGRYALVTMCIGGGQGIAAIFERI
notes: synthetic codon-optimised gene in pET-28a(+)-TEV, E. coli BL21(DE3), Ni-NTA; tetramer
For B1, in series [7], the Michaelis-Menten constant (Km) was found to be 39.25 ± 20.43 µM, the kcat turned out to be 1.41 ± 0.261 s⁻¹ and the kcat/Km came to 41500 ± 16200 M⁻¹ s⁻¹.

B2: 2-PS (Gerbera hybrid cultivar) (protein)
chain: MGSYSSDDVEVIREAGRAQGLATILAIGTATPPNCVAQADYADYYFRVTKSEHMVDLKEKFKRICEKTAIKKRYLALTEDYLQENPTMCEFMAPSLNARQDLVVTGVPMLGKEAAVKAIDEWGLPKSKITHLIFCTTAGVDMPGADYQLVKLLGLSPSVKRYMLYQQGCAAGGTVLRLAKDLAENNKGSRVLIVCSEITAILFHGPNENHLDSLVAQALFGDGAAALIVGSGPHLAVERPIFEIVSTDQTILPDTEKAMKLHLREGGLTFQLHRDVPLMVAKNIENAAEKALSPLGITDWNSVFWMVHPGGRAILDQVERKLNLKEDKLRASRHVLSEYGNLISACVLFIIDEVRKRSMAEGKSTTGEGLDCGVLFGFGPGMTVETVVLRSVRVTAAVANGN
notes: synthetic codon-optimised gene in pET-28a(+)-TEV, E. coli BL21(DE3), Ni-NTA
Consider B2, for which, in [8], the Km turned out to be 6.93 ± 1.34 µM, the kcat was determined as 0.9298 ± 0.0345 s⁻¹ and the kcat/Km turned out to be 137000 ± 24800 M⁻¹ s⁻¹.
